Literature values in PMC8061042.

Biological target: MS1
Sequence (main, as listed by the source): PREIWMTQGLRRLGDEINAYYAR

For MCL-1 (from UniProt Q07820), which Kd is on record?
The Kd was 1.9 nM.
